Drawing on patent WO2016038310A1, this text covers Kd for one molecule.

As a reminder, the Kd is the equilibrium constant for the complex coming apart.

Where “and” joins values, the source holds several entries; their conditions need not be identical. Equal values may be shown once.

Experiment [1] has as its target les FSH ovine et humaine (ovine and human FSH). Description: ELISA saturation binding, Kd estimated with GraphPad Prism.
Experiment [2] addresses les eCG et hCG (equine and human chorionic gonadotropins). The description is as above.

B1: scFv A8 (scFv)
scFv: QVQLQQSGGGLVQPGGSRKLSCAASGFTFSDFGTHWIRQAPEKGLEWVAYISSGSSTRYYADTVKGRFTISRDDPKNTLFLQMTSLRSEDTAMYYCARSYDGYHVPSFAYWGQGTLVTVSAGGGGSGGGGSGGGGSDIQMTQTPLSLSVSLGDQASISCRSSQNIVHSNGNTYLEWYLQKPGQSPKLLIYRVSNRFSGIPDRFSGSSSGTDFTLKISRVEAEDLGVYYCFQGSHVPLTFGAGTKLELKHHHHHH
For B1, the dissociation constant Kd was 3.12 µM and 4.62 µM in experiment [1]; 5.78 µM and 22.2 µM in experiment [2].
